Data reported in publication PMC7072391.

Target: tropomyosin receptor kinase A (TrkA) (rat (endogenous in primary septal cholinergic neurons)) (UniProt P35739)
Chain of UniProt P35739 (P35739 33-799): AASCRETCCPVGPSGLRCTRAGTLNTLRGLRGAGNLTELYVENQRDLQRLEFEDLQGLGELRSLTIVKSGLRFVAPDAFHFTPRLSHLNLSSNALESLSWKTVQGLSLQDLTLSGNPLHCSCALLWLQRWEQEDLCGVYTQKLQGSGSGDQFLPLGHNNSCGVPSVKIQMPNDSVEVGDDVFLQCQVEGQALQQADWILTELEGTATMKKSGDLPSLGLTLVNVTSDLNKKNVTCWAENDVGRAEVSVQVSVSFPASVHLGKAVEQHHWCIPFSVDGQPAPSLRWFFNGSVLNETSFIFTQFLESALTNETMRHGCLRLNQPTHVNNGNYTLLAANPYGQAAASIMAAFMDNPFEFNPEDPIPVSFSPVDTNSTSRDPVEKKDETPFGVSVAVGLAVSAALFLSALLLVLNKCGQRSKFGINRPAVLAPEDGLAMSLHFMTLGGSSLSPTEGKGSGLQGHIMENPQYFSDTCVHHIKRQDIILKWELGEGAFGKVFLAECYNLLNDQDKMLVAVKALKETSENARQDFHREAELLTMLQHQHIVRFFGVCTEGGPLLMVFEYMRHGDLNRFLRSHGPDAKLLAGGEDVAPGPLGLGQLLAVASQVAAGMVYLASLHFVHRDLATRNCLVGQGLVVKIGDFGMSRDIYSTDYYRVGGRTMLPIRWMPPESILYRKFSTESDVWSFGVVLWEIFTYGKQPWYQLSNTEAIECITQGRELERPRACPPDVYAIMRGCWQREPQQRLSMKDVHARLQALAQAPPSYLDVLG

| pTrkA (Y490) level by western blot, cholinergic neurons treated 7′ with 100 ng/mL (3.84 nM) NGF | pTrkA (Y490) level by western blot, cholinergic neurons treated 7′ with 10 μM peptide | Substance |
| --- | --- | --- |
| 161 % of CTR |  | Nerve Growth Factor (NGF), murine (from UniProt P01139 122-241) (ligand) |
|  | 155 % of CTR | hNGF1–15 dimer (peptide) |
|  | 296 % of CTR | acetylated monomer Ac-hNGF1–14 peptide |
|  | 153 % of CTR | human NGF 1–14 sequence, monomeric hNGF1–14 peptide |
